Experimental findings from patent publication US20140329752A1 (published 2014) are described below.

The chains are these.
B1: modified calcitonin gene-related peptide antagonist of SEQ ID NO: 8 (peptide)
peptide: H-CSNTAACVLGRLSQELHRLQTYPRTNVGSKAF-NH2
modifications: not fully specified (bridges); printed as NH2-Cys-Ser-Asn-Thr-Ala-Ala-Cys-Val-Leu-Gly-Arg-Leu-Ser-Gln-Glu-Leu-His-Arg-Leu-Gln-Thr-Tyr-Pro-Arg-Thr-Asn-Val-Gly-Ser-Lys-Ala-Phe-NH2; cysteine pairing not given here
B2: modified calcitonin gene-related peptide antagonist of SEQ ID NO: 15 (peptide)
peptide: ACDTAACVTHRLAGLLSRSGGVVKNNFVPTNVGSKAF-NH2
modifications: not fully specified (bridges); printed as Ala-Cys-Asp-Thr-Ala-Ala-Cys-Val-Thr-His-Arg-Leu-Ala-Gly-Leu-Leu-Ser-Arg-Ser-Gly-Gly-Val-Val-Lys-Asn-Asn-Phe-Val-Pro-Thr-Asn-Val-Gly-Ser-Lys-Ala-Phe-NH2; cysteine pairing not given here
B3: modified calcitonin gene-related peptide antagonist of SEQ ID NO: 1 (peptide)
peptide: H-ACDTAACVLGRLSQELHRLQTYPRTNVGSKAF-NH2
modifications: not fully specified (bridges); printed as NH2-Ala-Cys-Asp-Thr-Ala-Ala-Cys-Val-Leu-Gly-Arg-Leu-Ser-Gln-Glu-Leu-His-Arg-Leu-Gln-Thr-Tyr-Pro-Arg-Thr-Asn-Val-Gly-Ser-Lys-Ala-Phe-NH2; cysteine pairing not given here
B4: modified calcitonin gene-related peptide antagonist of SEQ ID NO: 7 (peptide)
peptide: H-ACNLSACVLGRLSQELHRLQTYPRTNVGSKAF-NH2
modifications: not fully specified (bridges); printed as NH2-Ala-Cys-Asn-Leu-Ser-Ala-Cys-Val-Leu-Gly-Arg-Leu-Ser-Gln-Glu-Leu-His-Arg-Leu-Gln-Thr-Tyr-Pro-Arg-Thr-Asn-Val-Gly-Ser-Lys-Ala-Phe-NH2; cysteine pairing not given here
B5: modified calcitonin gene-related peptide antagonist of SEQ ID NO: 5 (peptide)
peptide: H-ACVLGACVLGRLSQELHRLQTYPRTNVGSKAF-NH2
modifications: not fully specified (bridges); printed as NH2-Ala-Cys-Val-Leu-Gly-Ala-Cys-Val-Leu-Gly-Arg-Leu-Ser-Gln-Glu-Leu-His-Arg-Leu-Gln-Thr-Tyr-Pro-Arg-Thr-Asn-Val-Gly-Ser-Lys-Ala-Phe-NH2; cysteine pairing not given here
B6: modified calcitonin gene-related peptide antagonist of SEQ ID NO: 6 (peptide)
peptide: H-ACRFGACVLGRLSQELHRLQTYPRTNVGSKAF-NH2
modifications: not fully specified (bridges); printed as NH2-Ala-Cys-Arg-Phe-Gly-Ala-Cys-Val-Leu-Gly-Arg-Leu-Ser-Gln-Glu-Leu-His-Arg-Leu-Gln-Thr-Tyr-Pro-Arg-Thr-Asn-Val-Gly-Ser-Lys-Ala-Phe-NH2; cysteine pairing not given here
B7: modified calcitonin gene-related peptide antagonist of SEQ ID NO: 12 (peptide)
peptide: H-CSNTAVCVLGRLSQELHRLQTYPRTNVGSKAF-NH2
modifications: not fully specified (bridges); printed as NH2-Cys-Ser-Asn-Thr-Ala-Val-Cys-Val-Leu-Gly-Arg-Leu-Ser-Gln-Glu-Leu-His-Arg-Leu-Gln-Thr-Tyr-Pro-Arg-Thr-Asn-Val-Gly-Ser-Lys-Ala-Phe-NH2; cysteine pairing not given here
B8: modified calcitonin gene-related peptide antagonist of SEQ ID NO: 9 (peptide)
peptide: H-ACDTALCVLGRLSQELHRLQTYPRTNVGSKAF-NH2
modifications: not fully specified (bridges); printed as NH2-Ala-Cys-Asp-Thr-Ala-Leu-Cys-Val-Leu-Gly-Arg-Leu-Ser-Gln-Glu-Leu-His-Arg-Leu-Gln-Thr-Tyr-Pro-Arg-Thr-Asn-Val-Gly-Ser-Lys-Ala-Phe-NH2; cysteine pairing not given here
B9: modified calcitonin gene-related peptide antagonist of SEQ ID NO: 10 (peptide)
peptide: H-ACDTAICVLGRLSQELHRLQTYPRTNVGSKAF-NH2
modifications: not fully specified (bridges); printed as NH2-Ala-Cys-Asp-Thr-Ala-Ile-Cys-Val-Leu-Gly-Arg-Leu-Ser-Gln-Glu-Leu-His-Arg-Leu-Gln-Thr-Tyr-Pro-Arg-Thr-Asn-Val-Gly-Ser-Lys-Ala-Phe-NH2; cysteine pairing not given here
B10: modified calcitonin gene-related peptide antagonist of SEQ ID NO: 13 (peptide)
peptide: H-ACNLSACVLGRLSQELHRLQTYPTNTGSGTP-NH2
modifications: not fully specified (bridges); printed as NH2-Ala-Cys-Asn-Leu-Ser-Ala-Cys-Val-Leu-Gly-Arg-Leu-Ser-Gln-Glu-Leu-His-Arg-Leu-Gln-Thr-Tyr-Pro-Thr-Asn-Thr-Gly-Ser-Gly-Thr-Pro-NH2; cysteine pairing not given here
B11: modified calcitonin gene-related peptide antagonist of SEQ ID NO: 3 (peptide)
peptide: H-ACDTAVCVLGRLSQELHRLQTYPRTNVGSKAF-NH2
modifications: not fully specified (bridges); printed as NH2-Ala-Cys-Asp-Thr-Ala-Val-Cys-Val-Leu-Gly-Arg-Leu-Ser-Gln-Glu-Leu-His-Arg-Leu-Gln-Thr-Tyr-Pro-Arg-Thr-Asn-Val-Gly-Ser-Lys-Ala-Phe-NH2; cysteine pairing not given here
B12: modified calcitonin gene-related peptide antagonist of SEQ ID NO: 2 (peptide)
peptide: H-ACDTASCVLGRLSQELHRLQTYPRTNVGSKAF-NH2
modifications: not fully specified (bridges); printed as NH2-Ala-Cys-Asp-Thr-Ala-Ser-Cys-Val-Leu-Gly-Arg-Leu-Ser-Gln-Glu-Leu-His-Arg-Leu-Gln-Thr-Tyr-Pro-Arg-Thr-Asn-Val-Gly-Ser-Lys-Ala-Phe-NH2; cysteine pairing not given here
B13: modified calcitonin gene-related peptide antagonist of SEQ ID NO: 4 (peptide)
peptide: H-ACNTAACVLGRLSQELHRLQTYPRTNVGSKAF-NH2
modifications: not fully specified (bridges); printed as NH2-Ala-Cys-Asn-Thr-Ala-Ala-Cys-Val-Leu-Gly-Arg-Leu-Ser-Gln-Glu-Leu-His-Arg-Leu-Gln-Thr-Tyr-Pro-Arg-Thr-Asn-Val-Gly-Ser-Lys-Ala-Phe-NH2; cysteine pairing not given here
B14: modified calcitonin gene-related peptide antagonist of SEQ ID NO: 11 (peptide)
peptide: H-ACNLSVCVLGRLSQELHRLQTYPRTNVGSKAF-NH2
modifications: not fully specified (bridges); printed as NH2-Ala-Cys-Asn-Leu-Ser-Val-Cys-Val-Leu-Gly-Arg-Leu-Ser-Gln-Glu-Leu-His-Arg-Leu-Gln-Thr-Tyr-Pro-Arg-Thr-Asn-Val-Gly-Ser-Lys-Ala-Phe-NH2; cysteine pairing not given here
B15: modified calcitonin gene-related peptide antagonist of SEQ ID NO: 14 (peptide)
peptide: ACVLGACVLGRLSQELHRLQTYPVDPSSPHSY-NH2
modifications: not fully specified (bridges); printed as Ala-Cys-Val-Leu-Gly-Ala-Cys-Val-Leu-Gly-Arg-Leu-Ser-Gln-Glu-Leu-His-Arg-Leu-Gln-Thr-Tyr-Pro-Val-Asp-Pro-Ser-Ser-Pro-His-Ser-Tyr-NH2; cysteine pairing not given here

Ends that are not written are not given here.

In the first assay the target is T1, amylin receptor AMY1, a CT (calcitonin) receptor/RAMP1 (receptor-activity modifying protein) complex (UniProt P30988 25-474; O60894 27-148, limits assumed). Description: cell-based or functional assay.
T1 sequence (P30988 25-474 limits assumed, chain 1 of 2): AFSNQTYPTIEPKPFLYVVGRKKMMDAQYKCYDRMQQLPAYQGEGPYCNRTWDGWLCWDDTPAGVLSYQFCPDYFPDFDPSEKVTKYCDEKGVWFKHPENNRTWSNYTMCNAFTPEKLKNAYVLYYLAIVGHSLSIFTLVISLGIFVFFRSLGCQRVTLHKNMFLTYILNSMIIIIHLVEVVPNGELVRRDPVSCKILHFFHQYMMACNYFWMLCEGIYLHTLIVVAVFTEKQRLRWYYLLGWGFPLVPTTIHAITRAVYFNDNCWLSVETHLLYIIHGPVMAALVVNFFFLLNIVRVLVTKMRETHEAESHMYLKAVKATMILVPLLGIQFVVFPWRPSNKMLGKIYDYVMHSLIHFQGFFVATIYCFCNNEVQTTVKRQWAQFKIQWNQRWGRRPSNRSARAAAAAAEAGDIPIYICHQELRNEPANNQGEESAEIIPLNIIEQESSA
T1 sequence (O60894 27-148 limits assumed, chain 2 of 2): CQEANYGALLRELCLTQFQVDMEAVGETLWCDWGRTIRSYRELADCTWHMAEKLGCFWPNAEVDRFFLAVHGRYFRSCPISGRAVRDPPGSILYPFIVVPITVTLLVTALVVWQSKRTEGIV
As for VLGKLSQELHKLQTYPRTNTGSNTY (not fully specified) [AC187], the “IC50 nM (calcium flux, assay positive control)” value worked out at 8150 nM.

In a further assay the target is T1, amylin receptor AMY1, a CT (calcitonin) …. The assay is described as follows: cell-based or functional assay. The source holds these as a separate data set.
For B1, the “IC50 nM (calcium flux, inhibition of stimulation by 32 nM α-CGRP)” value amounted to 16 nM.
On the same count and under the same terms, next, B2: 1240 nM; B3: 17 nM.
On the same count and under the same terms, the figure for B4 is 8 nM.
For the molecule B5, the “IC50 nM (calcium flux, inhibition of stimulation by 32 nM α-CGRP)” value stood at 75 nM.
For the molecule B6, the “IC50 nM (calcium flux, inhibition of stimulation by 32 nM α-CGRP)” value was 33 nM.
Same read-out and setting: the figure for B7 is 9 nM.
As for B8, the “IC50 nM (calcium flux, inhibition of stimulation by 32 nM α-CGRP)” value worked out at 9 nM.
Same read-out and setting: next, B9: 9 nM.
The same measure, in the same setting: next, B10: 4 nM.
The same measure, in the same setting: the figure for B11 is 4 nM; for B12 it is 5 nM.
With B13, the “IC50 nM (calcium flux, inhibition of stimulation by 32 nM α-CGRP)” value was found to be 12 nM.
Regarding B14, the “IC50 nM (calcium flux, inhibition of stimulation by 32 nM α-CGRP)” value turned out to be 9 nM.
Take B15: the “IC50 nM (calcium flux, inhibition of stimulation by 32 nM α-CGRP)” value is 1020 nM.
